Changes are numbered by the printed parent chain. Blank lines part the entries; values can stand above or below the binder they belong to.
Tests used:
secreted, soluble Kex2 [1] = target: T1, secreted, soluble Kex2 (Saccharomyces cerevisiae, UniProt P13134 114-613, limits assumed); test: affinity of purified variants, enzyme inhibition
T1 construct: Secreted, soluble construct; also called kexin
T1 sequence (looked up): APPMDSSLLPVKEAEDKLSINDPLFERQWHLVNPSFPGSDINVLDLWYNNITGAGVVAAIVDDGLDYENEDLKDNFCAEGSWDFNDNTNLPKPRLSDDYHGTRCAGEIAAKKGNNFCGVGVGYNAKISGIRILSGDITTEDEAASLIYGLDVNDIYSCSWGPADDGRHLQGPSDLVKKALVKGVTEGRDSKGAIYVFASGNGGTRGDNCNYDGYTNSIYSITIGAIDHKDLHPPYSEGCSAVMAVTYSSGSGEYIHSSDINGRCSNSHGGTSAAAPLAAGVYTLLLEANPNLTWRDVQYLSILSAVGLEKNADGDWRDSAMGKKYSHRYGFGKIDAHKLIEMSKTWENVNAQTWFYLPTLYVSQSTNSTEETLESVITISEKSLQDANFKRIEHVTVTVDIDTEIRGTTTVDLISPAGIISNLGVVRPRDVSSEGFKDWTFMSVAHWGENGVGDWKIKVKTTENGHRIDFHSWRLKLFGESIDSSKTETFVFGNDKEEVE

secreted, soluble furin [2] = target: T2, secreted, soluble furin (human, UniProt P09958 108-715, limits assumed); test: rapid furin inhibition assay; table lists substitutions with equal or enhanced inhibition of furin relative to the template
T2 construct: Secreted, soluble construct; also called human furin
Description: 3. Rapid screening of libraries. Libraries were introduced into E. coli BL21 (DE3) cells and individual, cloned transformants were grown by shaking at 37° C. in 200 μl LB containing […] kanamycin in 96-well, 0.45 μm GHP membrane filter plates (Gelman) (FIG. 2). When O.D. 600 values reached 0.4, 60 μl of culture were transferred to secondary 96-well plates (Falcon), adjusted to 10% glycerol, and stored at −80° C. These frozen stocks served as master copies of the libraries. IPTG was added to the cultures to a final concentration of 1 mM, and the cultures were allowed to express eglin c variants for one hour in the filter plate. Expressed eglin c variants were extracted from the cells with 50 mM Tris-HCl pH 8.0 containing 2 mM EDTA following freezing and thawing. These extracts were collected as filtrates by centrifugation of the filter plate above a second plate. The filtrates, representing partially purified eglin c variants, were analyzed using a rapid fluorescence-based assay for processing enzyme inhibition as described below in Section 5. […] Frozen cells were cultured in 50 to 100 ml culture volumes, and DNA maxipreps were performed; the DNA preparations were then sequenced by automated DNA sequencing. Selected variants were expressed and purified on a larger scale, and affinities for furin or Kex2 were examined quantitatively (see below).
5. Rapid protease inhibition assay. Novel eglin variants were diluted 50-fold and incubated with secreted, soluble furin (0.5 nM) for 15 min in 96-well plates. The furin substrate (Boc-Arg-Val-Arg-Arg-MCA) was added, and release of AMC was monitored continuously in a 96-well fluorescence plate reader for 20 min, as described under Example 1. […] The plasmid DNA encoding such eglin c variant inhibitors were isolated and sequenced.

human PC7 [3] = target: T3, human PC7 (human, UniProt Q16549 142-667, limits assumed); test: enzyme inhibition, purified variant; Kassoc
T3 sequence (looked up): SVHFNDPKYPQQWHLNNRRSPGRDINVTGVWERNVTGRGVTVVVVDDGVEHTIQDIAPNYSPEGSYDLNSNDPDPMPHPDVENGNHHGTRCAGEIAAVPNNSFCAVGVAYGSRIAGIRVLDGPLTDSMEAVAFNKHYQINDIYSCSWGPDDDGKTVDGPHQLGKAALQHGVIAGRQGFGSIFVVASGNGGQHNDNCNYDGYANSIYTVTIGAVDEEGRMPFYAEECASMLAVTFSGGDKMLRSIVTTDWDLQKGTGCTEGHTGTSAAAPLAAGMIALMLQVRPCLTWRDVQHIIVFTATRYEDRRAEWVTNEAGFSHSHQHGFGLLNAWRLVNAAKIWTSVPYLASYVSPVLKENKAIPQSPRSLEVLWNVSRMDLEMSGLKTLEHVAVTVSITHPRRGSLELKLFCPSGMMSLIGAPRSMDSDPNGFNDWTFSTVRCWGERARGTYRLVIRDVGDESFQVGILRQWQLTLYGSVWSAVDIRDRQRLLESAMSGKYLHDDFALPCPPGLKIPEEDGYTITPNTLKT

secreted, soluble furin [4] = target: T2, secreted, soluble furin; test: enzyme inhibition, purified variant; Kassoc
secreted, soluble Kex2 [5] = target: T1, secreted, soluble Kex2; test: enzyme inhibition, purified variant; Kassoc
secreted, soluble furin [6] = target: T2, secreted, soluble furin; test: enzyme inhibition, purified variant
Description: (§1) Affinities of eglin variants with secreted, soluble Kex2 (hereafter “Kex2”; Brenner, C. and Fuller, R. S. (1992) Proc. Natl. Acad. Sci. USA 89: 922-926) and secreted, soluble furin (hereafter, “furin”; Bravo, D. A. et al (1994) J. Biol. Chem. 269: 25830-25837; and Komiyama & Fuller (2000) Biochemistry 39: 15156-15165) were measured by incubating variants with the enzymes (˜0.5 to 2.0 nM) for 45 min to 1 h at 21° C. in one of two enzyme assay buffers. For Kex2, the buffer was 200 mM Bistris (pH 7.27) containing 1 mM CaCl₂ and 0.1% Triton X-100; and for furin, the buffer was 20 mM NaMES (pH 7.0) containing 1 mM CaCl₂ and 0.1% Triton X-100 for furin. 100 to 200 μL aliquots of reaction mixtures were transferred into triplicate wells of opaque 96 well plates (Costar), and residual enzyme activity was measured with an fmax fluorescence micro plate reader (Molecular Devices) by monitoring hydrolysis of a fluorogenic substrate Boc-Arg-Val-Arg-Arg-MCA. Data were graphically analyzed (KaleidaGraph) with an equation developed by Green and Work (1953). Site-directed mutagenesis at P2 and P6 of eglin c generated temporary inhibitors (Table 3) and exhausted possibility to improve affinity further with this approach.

secreted, soluble Kex2 [7] = target: T1, secreted, soluble Kex2; test: enzyme inhibition, purified variant
Description: as §1

human PC7 [8] = target: T3, human PC7; test: enzyme inhibition, purified variant
secreted, soluble furin [9] = target: T2, secreted, soluble furin; test: enzyme inhibition, purified variant; remark: listed apart in the source
secreted, soluble Kex2 [10] = target: T1, secreted, soluble Kex2; test: enzyme inhibition, purified variant; remark: listed apart in the source
secreted, soluble furin [11] = target: T2, secreted, soluble furin; test: equilibrium enzyme inhibition, fluorogenic substrate
Description: as §1

secreted, soluble Kex2 [12] = target: T1, secreted, soluble Kex2; test: as above
Description: as §1

secreted, soluble furin [13] = target: T2, secreted, soluble furin; test: equilibrium enzyme inhibition
Description: (§2) Thus, R1-eglin refers to substitution of Arg at position P1.
(§3) Affinities of eglin variants with secreted, soluble Kex2 (hereafter “Kex2”; Brenner, C. and Fuller, R. S. (1992) Proc. Natl. Acad. Sci. USA 89: 922-926) and secreted, soluble furin (hereafter, “furin”; Bravo, D. A. et al (1994) J. Biol. Chem. 269: 25830-25837; and Komiyama & Fuller (2000) Biochemistry 39: 15156-15165) were measured by incubating variants with the enzymes (˜0.5 to 2.0 nM) for 45 min to 1 h at 21° C. in one of two enzyme assay buffers. For Kex2, the buffer was 200 mM Bistris (pH 7.27) containing 1 mM CaCl₂ and 0.1% Triton X-100; and for furin, the buffer was 20 mM NaMES (pH 7.0) containing 1 mM CaCl₂ and 0.1% Triton X-100 for furin.

secreted, soluble Kex2 [14] = target: T1, secreted, soluble Kex2; test: equilibrium enzyme inhibition
Description: as §2, §3

secreted, soluble furin [15] = target: T2, secreted, soluble furin; test: calculated from kon (progress curves) and Ka
Description: In some aspects of the present invention, biological application of the eglin c variants of the present invention as inhibitors of processing in vivo depends upon the rate of binding to target enzymes, where it is critical. Therefore, the rate of action of eglin variants with Kex2 and furin was examined by incubating 5×10⁻¹⁰ M enzyme with inhibitor at molar ratios of inhibitor to enzyme ranging from 10 to 80. […] The relationship between kobs and inhibitor concentration was linear. The values of kₒₙ were determined from the slope of such curves, and dissociation rate constants (koff) were calculated (koff=kₒₙ/Kₐ). For R4R1-eglin, koff was calculated to be 2×10⁻⁴s⁻¹ for Kex2, and 3×10⁻⁴s⁻¹ for furin. […] Similarly, the t_{1/2} of the complex of M4R1-eglin with Kex2 was estimated to be 3 h. For complex of R4K1-eglin with furin, koff was calculated to be 2×10⁻⁴s⁻¹ implying that the koff and t_{1/2} for this complex are similar to those for the complex of R4R1-eglin with furin.

secreted, soluble furin [16] = target: T2, secreted, soluble furin; test: enzyme inhibition, fluorogenic substrate; * temporary inhibition
Description: as §1

secreted, soluble Kex2 [17] = target: T1, secreted, soluble Kex2; test: as above
Description: as §1

T2 sequence (P09958 108-715 limits assumed): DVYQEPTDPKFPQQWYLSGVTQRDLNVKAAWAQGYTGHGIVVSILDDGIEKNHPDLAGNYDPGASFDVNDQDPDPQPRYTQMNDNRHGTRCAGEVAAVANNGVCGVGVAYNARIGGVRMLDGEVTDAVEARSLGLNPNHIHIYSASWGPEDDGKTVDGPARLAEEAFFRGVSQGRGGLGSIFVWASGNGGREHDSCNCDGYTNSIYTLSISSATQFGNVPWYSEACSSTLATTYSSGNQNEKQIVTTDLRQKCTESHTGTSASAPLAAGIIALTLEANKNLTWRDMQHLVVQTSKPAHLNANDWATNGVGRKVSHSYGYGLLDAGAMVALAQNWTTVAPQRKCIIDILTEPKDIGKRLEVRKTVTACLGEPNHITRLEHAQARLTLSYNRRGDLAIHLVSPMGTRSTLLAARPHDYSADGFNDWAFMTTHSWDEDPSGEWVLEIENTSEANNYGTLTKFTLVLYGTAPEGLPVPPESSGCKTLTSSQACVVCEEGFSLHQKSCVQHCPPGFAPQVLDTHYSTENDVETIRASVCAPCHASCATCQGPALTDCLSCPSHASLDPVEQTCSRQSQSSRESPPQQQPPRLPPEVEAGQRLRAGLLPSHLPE

B2: Tyr49Asp-R4R1-eglin (designed binder)
chain: SMGSELKSFPEVVGKTVDQAREYFTLHYPQYDVYFLPEGSRVTRDLRDNRVRVFYNPGTNVVNHVPHVG
notes: R4R1 template; N-terminal Met removed; also called Asp49-R4R1-eglin; Asp49-R4R1-
- Ka (human PC7 [3]): 5.6e+08 M⁻¹
- Ka (secreted, soluble furin [4]): 3e+09 M⁻¹
- Ka (secreted, soluble Kex2 [5]): 1.8e+10 M⁻¹
- Ki (secreted, soluble furin [6]): 0.33 nM
- Ki ratio (to R4R1- template) (secreted, soluble furin [6]): 0.132
- fold enhanced affinity (relative to R4R1-eglin) (secreted, soluble furin [6]): 10 fold
- Ki (secreted, soluble Kex2 [7]): 0.045 nM
- Ki ratio (to R4R1- template) (secreted, soluble Kex2 [7]): 0.05
- fold enhanced affinity (relative to R4R1-eglin) (secreted, soluble Kex2 [7]): 16 fold
- Ki (human PC7 [8]): 1.8 nM
- Ki (secreted, soluble furin [9]): 0.3 nM
- Ki (secreted, soluble Kex2 [10]): 0.056 nM

B3: R4K1-eglin (designed binder)
chain: B2 chain with R44K, D48Y
notes: N-terminal Met removed; also called R4K1-template
- Ki (secreted, soluble furin [11]): 38 nM
- Ki (secreted, soluble Kex2 [12]): 2.5 nM
- Ki (secreted, soluble furin [6]): 38 nM
- Ki ratio (to R4K1- template) (secreted, soluble furin [6]): 1
- Ki (secreted, soluble Kex2 [7]): 2.5 nM
- Ki ratio (to R4K1- template) (secreted, soluble Kex2 [7]): 1
- fold reduction of Ka relative to R4R1-eglin (secreted, soluble furin [13]): 15.4 fold
- fold decrease of Ka relative to R4R1-eglin (secreted, soluble Kex2 [14]): 2.8 fold
- fold higher affinity for Kex2 than for furin (secreted, soluble Kex2 [14]): ~20 fold
- koff (secreted, soluble furin [15]): 0.0002 s⁻¹

B4: M4K2R1-eglin (designed binder)
chain: B2 chain with R41M, T43K, D48Y
notes: N-terminal Met removed
- Ki (secreted, soluble furin [16]): 83 nM
- Ki (secreted, soluble Kex2 [17]): 0.59 nM

B6: R4K2R1-eglin (designed binder)
chain: B2 chain with T43K, D48Y
notes: N-terminal Met removed
- Ki (secreted, soluble furin [16]): ~0.5 nM
- Ki (secreted, soluble Kex2 [17]): ~0.5 nM

B7: K2R1-eglin (designed binder)
chain: B2 chain with R41P, T43K, D48Y
notes: N-terminal Met removed
- Ki (secreted, soluble furin [16]): 100 nM
- Ki (secreted, soluble Kex2 [17]): 0.67 nM

B9: R6R4R1-eglin (designed binder)
chain: B2 chain with G39R, D48Y
notes: N-terminal Met removed; also called Gly40 Arg on R4R1-template
- Ki (secreted, soluble Kex2 [12]): 0.29 nM
- Ki (secreted, soluble furin [16]): 2 nM

Next, values leading:

- binding result (secreted, soluble Kex2 [1]): binds
- binding result (secreted, soluble furin [2]): binds
B1: Glu39His-R4R1-eglin (designed binder)
chain: B2 chain with E38H, D48Y

- binding result (secreted, soluble Kex2 [1]): binds
- binding result (secreted, soluble furin [2]): binds
B5: Glu39Tyr-R4R1-eglin (designed binder)
chain: B2 chain with E38Y, D48Y

- binding result (secreted, soluble Kex2 [1]): binds
- binding result (secreted, soluble furin [2]): binds
B8: Glu39Ser-R4R1-eglin (designed binder)
chain: B2 chain with E38S, D48Y

- binding result (secreted, soluble Kex2 [1]): binds
- binding result (secreted, soluble furin [2]): binds
B10: Glu39Pro-R4R1-eglin (designed binder)
chain: B2 chain with E38P, D48Y

— patent US20050203007A1 (REGENTS OF THE UNIVERSITY OF MICHIGAN, published 2005)
